Paper PMC5137110, “Relocation of active site carboxylates in major facilitator superfamily multidrug transporter LmrP reveals plasticity in proton interactions” (Scientific Reports, 2016)

Experiments:
LmrP = target: T1, LmrP (Lactococcus lactis, UniProt Q48658); test: fluorescence anisotropy, purified protein titrated into propidium; format: binding; settings: 50 mM KPi pH 7.0, 100 mM NaCl, 0.05% DDM; 0.2 or 1 μM propidium
T1 construct: full length, 408 residues; His6-tagged (His10-tagged for T331E); plasmid pNZ8084; expressed in L. lactis NZ9000 delta-lmrA delta-lmrCD

[1] = tested on: CC[N+](C)(CC)CCC[n+]1c(-c2ccccc2)c2cc(N)ccc2c2ccc(N)cc21; test: cells, lysate or membranes; format: cell-based, Lactococcus lactis; settings: 50 mM KPi pH 7.0, 5 mM MgSO4, corrected for influx in cells without LmrP
[2] = tested on: CC[n+]1c(-c2ccccc2)c2cc(N)ccc2c2ccc(N)cc21; test: cells, lysate or membranes; format: cell-based, Lactococcus lactis; settings: 50 mM KPi pH 7.0, 5 mM MgSO4, corrected for influx in cells without LmrP

| Molecule | fluorescence anisotropy, purified protein titrated into propidium (LmrP) | Km [1] [µM] | Km [2] [µM] |
| --- | --- | --- | --- |
| CC[N+](C)(CC)CCC[n+]1c(-c2ccccc2)c2cc(N)ccc2c2ccc(N)cc21 [propidium] | propidium binding to purified T331E LmrP and WT LmrP was measured by fluorescence anisotropy |  |  |
| LmrP (Lactococcus lactis) |  | 1.3 ± 0.2 | 7.7 ± 5.1 |
